Experimental data published in patent US20100120700A1, “METHODS AND COMPOSITIONS FOR TREATING CERVICAL CANCER” (priority 2000, published 2010).
“Also recorded” adds a separate entry of the source. Where two headings read alike, the source gives them in different places.

B1: TIP-TIP-IgG fusion protein: two copies of the TIP-1 PDZ domain fused to the hIgG constant region (protein)
chain: QRVEIHKLRQGENLILGFSIGGGIDQDPSQNPFSEDKTDKGIYVTRVSEGGPAEIAGLQIGDKIMQVNGWDMTMVTHDQARKRLTKRSEEVVRLLVTRQSLQKQRVEIHKLRQGENLILGFSIGGGIDQDPSQNPFSEDKTDKGIYVTRVSEGGPAEIAGLQIGDKIMQVNGWDMTMVTHDQARKRLTKRSEEVVRLLVTRQSLQK
modifications: left off: a dimerising Fc or GST
notes: two copies of the TIP-1 PDZ domain fused to the hIgG constant region

Assays:
human PDZ domains = test: G assay, E6 PL peptides against PDZ domain panel; conditions: value names the PDZ domain(s) that saturated binding with the E6 peptide; signal classes (A450 nm 3-4 or 4)
Description: (1) A PDZ-domain polypeptide is bound to a surface, e.g. a protein binding surface. In a preferred embodiment, a GST/PDZ fusion protein containing one or more PDZ domains is bound to a polystyrene 96-well plate. […] In one embodiment, the GST/PDZ fusion protein is bound via an anti-GST antibody that is coated onto the 96-well plate. Adequate binding to the plate can be achieved when: • a. 100 uL per well of 5 ug/mL goat anti-GST polyclonal antibody (Pierce) in PBS is added to a polystyrene 96-well plate (e.g., Num Polysorb) at 4° C. for 12 hours. • b. The plate is blocked by addition of 200 uL per well of PBS/BSA for 2 hours at 4° C. • c. The plate is washed 3 times with PBS. • d. […]
(3) The binding of the biotinylated peptide to the GST/PDZ fusion protein surface can be detected using a variety of methods and detectors known to one of skill in the art. […] The reaction of the HRP and its substrate is terminated by addition of 100 uL per well of 1M sulfuric acid, and the absorbance of each well of the plate is read at 450 nm.
(4) Specific binding of a PL peptide and a PDZ domain polypeptide is determined by comparing the signal from the well(s) in which the PL peptide and PDZ domain polypeptide are combined, with the background signal(s). […]

GST-HPV11E6 = target: T1, GST-HPV11E6 (Human papillomavirus 11, UniProt P04019); test: Modified ELISA, TIP-TIP-IgG binding to full length E6; parameters: species or system HPV11; conditions: plate coated with 5 ug/ml GST-E6; FIG. 2
T1 construct: made in house; host or cells: E. coli
T1 sequence (P04019 whole entry): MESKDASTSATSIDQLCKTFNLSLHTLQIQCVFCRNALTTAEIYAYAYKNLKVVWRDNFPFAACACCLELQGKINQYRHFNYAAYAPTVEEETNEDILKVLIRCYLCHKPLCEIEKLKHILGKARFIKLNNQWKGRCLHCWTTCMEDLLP
Description: (§1) Protocol • 1) Coat plate with 5 ug/ml GST-E6 fusion protein, O/N @4° C. • 2) Dump proteins out and tap dry • 3) Blocking—Add 200 ul per well 2% BSA/PBS, 2 hrs at 4° C. • 4) Prepare PDZ proteins (50:50 mixture of supematant from TIP-TIP-IgG transfection and 2% BSA/PBS) • 5) 3× wash with cold PBS • 6) Add PDZ protein prepared in step 7 or anti-E6 Ab at 1 ug/ml in 2% BSA/PBS (or anti-GST Ab as control). • 7) 3× wash with cold PBS • 8) Add appropriate concentration of enzyme-conjugated detection Ab (anti-hIgG-HRP, anti-goat-HRP, or anti-mouse-HRP) 100 ul per well on ice, 20 minutes at 4° C. • 9) Turn on plate reader and prepare files • 10) 5× wash with Tween wash buffer, avoiding bubbles • 11) Using gloves, add TMB substrate at 100 ul per well • incubate in dark at room temp • check plate periodically (5, 10, & 20 minutes) • take early readings, if necessary, at 650 nm (blue) • at 30 minutes, stop reaction with 100 ul of 1M H2SO4 • take final reading at 450 nm (yellow)

[1] = target: GST-HPV18E6 fusion protein (Human papillomavirus type 18, UniProt P06463); conditions: plate coated with 5 ug/ml GST-E6, unpurified TIP-TIP-IgG supernatant, FIG. 2
Chain of GST-HPV18E6 fusion protein (P06463 whole entry, the tested form may be a part): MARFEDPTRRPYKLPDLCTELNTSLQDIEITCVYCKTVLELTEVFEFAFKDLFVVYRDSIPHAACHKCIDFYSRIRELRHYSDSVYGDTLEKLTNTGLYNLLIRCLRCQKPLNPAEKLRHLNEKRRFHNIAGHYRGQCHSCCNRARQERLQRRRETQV
Description: as §1

Row | Molecule | PDZ binding partner (signal 4 and 5 of 0-5) (human PDZ domains) | binding to full length non-oncogenic E6 (HPV11) (GST-HPV11E6) | binding to full length oncogenic E6 (HPV18) [1] | binding to full length oncogenic E6 (HPV18) ([1]; listed as TIP-1)
1 | HPV 18: biotinylated 18-20 aa E6 C-terminal peptide of HPV 18, terminal residues E T Q V; RLQRRRETQV (SEQ ID NO: 14) | TIP1 and Magi 1 (PDZ #2) |  |  | 
2 | B1 |  | did not show any reactivity; also recorded: without binding to non-oncogenic variants | able to recognize GST-HPV18E6 fusion protein at levels comparable to an antibody generated against HPV18-E6 | could specifically recognize full length E6 protein from an oncogenic strain (HPV18)
